# Source: patent publication US20240141043A1
# Columns and labels:
# murine CD19 (mouse) [1] = target: murine CD19 (mouse) (UniProt P25918); test: flow cytometry of mouse peripheral blood, Day 8 after i.v. injection of 50 ug anti-murine CD19-FITC, CD19-FITC in master mix [CONT'D) D]
# murine CD19 (mouse) [2] = target: murine CD19 (mouse) (UniProt P25918); test: flow cytometry of mouse peripheral blood, Day 8 after i.v. injection of 50 ug anti-murine CD19-FITC, no CD19-FITC in master mix (injected antibody only) [CONT'D) D]
# murine CD19 (mouse) [3] = target: murine CD19 (mouse) (UniProt P25918); test: flow cytometry of mouse peripheral blood, 4hrs after i.v. injection of 50 ug anti-murine CD19-FITC, no CD19-FITC in master mix (injected antibody only) [CONT'D) D]
# murine CD19 (mouse) [4] = target: murine CD19 (mouse) (UniProt P25918); test: flow cytometry of mouse peripheral blood, Day 5 after i.v. injection of 50 ug anti-murine CD19-FITC, no CD19-FITC in master mix (injected antibody only) [CONT'D) D]
# murine CD19 (mouse) [5] = target: murine CD19 (mouse) (UniProt P25918); test: flow cytometry of mouse peripheral blood, Day 1 after i.v. injection of 50 ug anti-murine CD19-FITC, CD19-FITC in master mix [CONT'D) D]
# murine CD19 (mouse) [6] = target: murine CD19 (mouse) (UniProt P25918); test: flow cytometry of mouse peripheral blood, Day 1 after i.v. injection of 50 ug anti-murine CD19-FITC, no CD19-FITC in master mix (injected antibody only) [CONT'D) D]
# murine CD19 (mouse) [7] = target: murine CD19 (mouse) (UniProt P25918); test: flow cytometry of mouse peripheral blood, Day 5 after i.v. injection of 50 ug anti-murine CD19-FITC, CD19-FITC in master mix [CONT'D) D]
# murine CD19 (mouse) [8] = target: murine CD19 (mouse) (UniProt P25918); test: flow cytometry of mouse peripheral blood, 4hrs after i.v. injection of 50 ug anti-murine CD19-FITC, CD19-FITC in master mix [CONT'D) D]
# murine CD19 (mouse), sequence (P25918 19-547): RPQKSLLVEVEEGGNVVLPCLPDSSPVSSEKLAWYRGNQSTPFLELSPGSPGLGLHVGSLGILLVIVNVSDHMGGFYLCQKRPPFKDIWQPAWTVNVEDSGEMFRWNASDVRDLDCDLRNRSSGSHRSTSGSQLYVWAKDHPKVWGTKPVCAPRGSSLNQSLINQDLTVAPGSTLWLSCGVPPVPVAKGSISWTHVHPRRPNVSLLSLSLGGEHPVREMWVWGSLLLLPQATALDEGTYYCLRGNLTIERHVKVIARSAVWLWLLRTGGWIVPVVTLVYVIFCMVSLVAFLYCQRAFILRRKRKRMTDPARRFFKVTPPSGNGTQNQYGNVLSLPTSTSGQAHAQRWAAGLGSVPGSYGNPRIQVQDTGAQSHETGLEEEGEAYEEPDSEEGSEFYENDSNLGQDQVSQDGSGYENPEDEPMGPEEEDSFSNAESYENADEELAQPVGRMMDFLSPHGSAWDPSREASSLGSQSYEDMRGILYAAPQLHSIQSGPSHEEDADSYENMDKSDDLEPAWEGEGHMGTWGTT
substance,measurement,setting,value
anti-murine CD19-FITC antibody (Biolegend; clone 1D3),CD19+CD20+ gate (share of cells in the gate),murine CD19 (mouse) [1],36.4
same,CD19+CD20+ gate (share of cells in the gate),murine CD19 (mouse) [2],38.3
same,CD19+CD20+ gate (share of cells in the gate),murine CD19 (mouse) [3],52.7
same,CD19+CD20+ gate (share of cells in the gate),murine CD19 (mouse) [4],44
same,CD19+CD20+ gate (share of cells in the gate),murine CD19 (mouse) [5],52.3
same,CD19+CD20+ gate (share of cells in the gate),murine CD19 (mouse) [6],49.1
same,CD19+CD20+ gate (share of cells in the gate),murine CD19 (mouse) [7],43.6
same,CD19+CD20+ gate (share of cells in the gate),murine CD19 (mouse) [8],53
